According to US20190203248A1 (Bristol-Myers Squibb, published 2019):

What was measured:
[1] = target: T1, cynomolgous monkey serum albumin (cynomolgous monkey, UniProt A2V9Z4 25-608); test: SPR (Biacore T100), CySA immobilized, 37 C, 30 µl/min
T1 construct: also called CySA
Description: (§1) Serum albumins were dissolved in PBS buffer (10 mM sodium phosphate, 130 mM sodium chloride, pH 7.1) to a concentration of 10 mg/ml, and subsequently diluted to 8-10 μg/ml in 10 mM sodium acetate pH 5.0 for immobilization. Serum albumins were immobilized on a Series S CM5 sensor chip using standard ethyl(dimethylaminopropyl) carbodiimide (EDC)/N-hydroxysuccinimide (NHS) chemistry in HBS-EP+ running buffer at 25° C., following general manufacturer guidelines. Flow cell 1 was activated with EDC/NHS and blocked with ethanolamine. […] Kinetic experiments were performed in PBS buffer containing 0.05% tween-20 (running buffer) at either 25° C. or 37° C. […] These samples were injected across flow cells 1-4 for 300 s, with a 420 s dissociation time, at flow rates of 30 μl/min or 60 μl/min to check for mass transfer limitation. All surfaces were regenerated with 2 pulses of 10 mM glycine pH 2.0 at 30 μl/min for 30 s. Raw sensograms were “double-referenced” by subtracting flow cell 1 data from flow cell 2, 3 or 4 data, and then subtracting a separate buffer cycle from each sensogram. The double-referenced sensogram data was fitted to a 1:1 Langmuir model using Biacore T100 Evaluation software version 2.0.2 to determine the association rate constant (ka), the dissociation rate constant (kd), and the equilibrium dissociation constant (KD).

[2] = target: T2, β-klotho of differentiated 3T3-L1 adipocytes (mouse, UniProt Q99N32 1-1043); test: cell-based or functional assay
T2 sequence (looked up): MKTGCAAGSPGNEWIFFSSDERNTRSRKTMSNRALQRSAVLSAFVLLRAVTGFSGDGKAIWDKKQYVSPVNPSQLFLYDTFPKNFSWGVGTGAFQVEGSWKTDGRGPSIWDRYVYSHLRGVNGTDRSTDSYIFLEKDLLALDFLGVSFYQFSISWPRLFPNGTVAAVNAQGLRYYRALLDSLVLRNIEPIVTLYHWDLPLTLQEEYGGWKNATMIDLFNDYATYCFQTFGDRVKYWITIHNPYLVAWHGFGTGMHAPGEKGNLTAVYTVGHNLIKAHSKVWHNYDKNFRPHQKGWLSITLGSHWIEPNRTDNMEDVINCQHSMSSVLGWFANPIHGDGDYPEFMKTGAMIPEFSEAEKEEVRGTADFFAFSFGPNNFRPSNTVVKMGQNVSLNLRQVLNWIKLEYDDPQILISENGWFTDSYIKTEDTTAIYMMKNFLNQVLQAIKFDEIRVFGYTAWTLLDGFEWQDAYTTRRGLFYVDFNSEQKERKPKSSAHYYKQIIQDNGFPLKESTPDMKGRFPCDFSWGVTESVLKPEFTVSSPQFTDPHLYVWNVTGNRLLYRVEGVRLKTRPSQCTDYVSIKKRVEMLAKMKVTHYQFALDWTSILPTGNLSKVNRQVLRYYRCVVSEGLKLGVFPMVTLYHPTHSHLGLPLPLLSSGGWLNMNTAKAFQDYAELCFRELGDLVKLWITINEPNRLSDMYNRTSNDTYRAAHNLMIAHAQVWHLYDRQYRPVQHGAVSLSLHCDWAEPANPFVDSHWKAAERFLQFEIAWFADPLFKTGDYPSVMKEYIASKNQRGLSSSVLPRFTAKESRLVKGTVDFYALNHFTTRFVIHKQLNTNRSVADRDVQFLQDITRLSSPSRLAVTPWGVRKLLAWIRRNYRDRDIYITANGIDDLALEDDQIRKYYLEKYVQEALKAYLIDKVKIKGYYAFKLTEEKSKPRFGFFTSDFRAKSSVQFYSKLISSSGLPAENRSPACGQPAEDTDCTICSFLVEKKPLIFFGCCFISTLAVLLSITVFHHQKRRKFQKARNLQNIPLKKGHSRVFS

murine serum albumin [3] = target: T3, murine serum albumin (mouse, UniProt P07724 25-608); test: SPR (Biacore T100), immobilized MuSA, analyte series 1000 to 62.5 nM, 37 C
T3 construct: also called MuSA; mouse serum albumin
Description: as §1

human β-klotho [4] = target: T4, human β-klotho (human, UniProt Q86Z14 1-1044); test: cell-based or functional assay
[5] = target: T1, cynomolgous monkey serum albumin; test: SPR (Biacore T100), CySA immobilized, 25 C, 30 µl/min
Description: as §1

human serum albumin [6] = target: T5, human serum albumin (human, UniProt P02768 25-609); test: SPR (Biacore T100), HSA immobilized, 37 C, 30 µl/min
T5 construct: also called HSA; HuSA
Description: as §1

human serum albumin [7] = target: T5, human serum albumin; test: SPR (Biacore T100), HSA immobilized, 25 C, 30 µl/min
Description: as §1

human β-klotho [8] = target: T4, human β-klotho; test: cell-based or functional assay; remark: listed apart in the source
human serum albumin [9] = target: T5, human serum albumin; test: isothermal titration calorimetry, 37 C, PBS
Description: SABA-FGF21 fusion protein plus buffer was placed in the instrument sample cell at a concentration range of 0.4 to 1.0 mg/mL protein. The matching buffer was placed in the reference cell. Concentrations were determined using extinction coefficients calculated from the protein sequences of the pure proteins. The instrument reaction cell was equilibrated at 37° C. […] The resultant thermogram data was fitted using Origin™ evaluation software package (Microcal Inc.) version 2.0.2 to estimate the stochiometry, enthalpy, and equilibrium disassociation constant (KD) of the protein—protein binding reaction.

rat serum albumin = rat serum albumin (rat, UniProt P02770 25-608); test: direct binding ELISA on plate-coated albumin, absorbance 450 nm
Description: (§2) For dose response assays, concentrations ranging from 0.1 nM up to 1 μM were used. After washing in PBST to remove unbound Adnectins™, anti-His mAb-HRP conjugate (R&D Systems, MN) diluted 1:2500 in casein block buffer was added to the bound His-tagged Adnectins™ for 1 hour at room temperature. Excess conjugate was removed by washing with PBST and bound Adnectins™ detected using TMB detection reagents (BD Biosciences) according to the manufacturer's instructions.

murine serum albumin [10] = target: T3, murine serum albumin; test: as above
Description: as §2

human serum albumin [11] = target: T5, human serum albumin; test: as above
Description: as §2

human serum albumin [12] = target: T5, human serum albumin; test: binding kinetics, HBS-P buffer, 25 C; 25 C, HBS-P buffer
rhesus serum albumin [13] = target: T6, rhesus serum albumin (rhesus, UniProt Q28522 17-600); test: binding kinetics, HBS-P buffer, 37 C against 25 C
T6 construct: also called RhSA

human serum albumin [14] = target: T5, human serum albumin; test: binding kinetics, HBS-P buffer, 37 C against 25 C
rhesus serum albumin [15] = target: T6, rhesus serum albumin; test: binding kinetics, HBS-P buffer, 25 C
human serum albumin [16] = target: T5, human serum albumin; test: binding kinetics, HBS-P buffer, 25 C
rhesus serum albumin [17] = target: T6, rhesus serum albumin; test: binding kinetics, HBS-P buffer, 37 C
human serum albumin [18] = target: T5, human serum albumin; test: binding kinetics, HBS-P buffer, 37 C
rhesus serum albumin [19] = target: T6, rhesus serum albumin; test: binding kinetics, MES buffer, pH 5.5
human serum albumin [20] = target: T5, human serum albumin; test: binding kinetics, MES buffer, pH 5.5
rhesus serum albumin [21] = target: T6, rhesus serum albumin; test: binding kinetics, MES buffer, pH 7.4
human serum albumin [22] = target: T5, human serum albumin; test: binding kinetics, MES buffer, pH 7.4
murine serum albumin [23] = target: T3, murine serum albumin; test: SPR (Biacore), albumin immobilized on CM5 chip
Description: In addition, binding to albumin was carried out under various pH conditions ranging from pH 5.5 to pH 7.4.

rhesus serum albumin [24] = target: T6, rhesus serum albumin; test: comment in summary table

T3 sequence (P07724 25-608 limits assumed): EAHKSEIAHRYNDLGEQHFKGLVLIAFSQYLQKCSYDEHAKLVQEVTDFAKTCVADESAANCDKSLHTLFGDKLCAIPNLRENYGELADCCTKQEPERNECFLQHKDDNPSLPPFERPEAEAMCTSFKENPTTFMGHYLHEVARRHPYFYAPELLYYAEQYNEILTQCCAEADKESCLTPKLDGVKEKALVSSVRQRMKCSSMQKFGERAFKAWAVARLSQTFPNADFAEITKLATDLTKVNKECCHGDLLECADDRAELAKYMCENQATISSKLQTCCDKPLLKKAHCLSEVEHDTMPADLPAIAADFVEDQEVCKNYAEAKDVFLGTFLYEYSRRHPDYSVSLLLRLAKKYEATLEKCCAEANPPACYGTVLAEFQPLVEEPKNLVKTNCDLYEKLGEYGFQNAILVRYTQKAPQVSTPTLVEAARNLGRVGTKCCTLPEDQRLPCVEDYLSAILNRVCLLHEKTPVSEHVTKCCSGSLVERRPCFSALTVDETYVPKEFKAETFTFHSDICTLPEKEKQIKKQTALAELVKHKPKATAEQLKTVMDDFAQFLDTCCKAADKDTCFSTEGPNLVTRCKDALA
T6 sequence (Q28522 17-600 limits assumed): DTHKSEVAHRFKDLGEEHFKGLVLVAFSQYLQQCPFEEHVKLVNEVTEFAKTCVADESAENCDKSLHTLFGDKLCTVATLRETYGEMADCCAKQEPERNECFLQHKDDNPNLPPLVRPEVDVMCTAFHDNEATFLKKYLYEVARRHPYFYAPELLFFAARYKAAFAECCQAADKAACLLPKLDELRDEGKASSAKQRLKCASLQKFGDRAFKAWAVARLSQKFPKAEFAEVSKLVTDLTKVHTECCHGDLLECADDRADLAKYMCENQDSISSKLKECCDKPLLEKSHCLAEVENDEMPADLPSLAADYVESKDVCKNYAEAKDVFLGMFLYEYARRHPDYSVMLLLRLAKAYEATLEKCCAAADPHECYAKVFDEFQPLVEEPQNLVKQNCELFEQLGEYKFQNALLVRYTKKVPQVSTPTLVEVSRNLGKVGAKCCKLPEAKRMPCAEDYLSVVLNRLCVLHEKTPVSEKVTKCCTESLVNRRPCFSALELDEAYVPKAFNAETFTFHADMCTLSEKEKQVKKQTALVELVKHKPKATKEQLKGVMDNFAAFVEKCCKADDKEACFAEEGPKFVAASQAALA
T1 sequence (A2V9Z4 25-608 limits assumed): as the sequence (Q28522 17-600 limits assumed) above
rat serum albumin, sequence (P02770 25-608 limits assumed): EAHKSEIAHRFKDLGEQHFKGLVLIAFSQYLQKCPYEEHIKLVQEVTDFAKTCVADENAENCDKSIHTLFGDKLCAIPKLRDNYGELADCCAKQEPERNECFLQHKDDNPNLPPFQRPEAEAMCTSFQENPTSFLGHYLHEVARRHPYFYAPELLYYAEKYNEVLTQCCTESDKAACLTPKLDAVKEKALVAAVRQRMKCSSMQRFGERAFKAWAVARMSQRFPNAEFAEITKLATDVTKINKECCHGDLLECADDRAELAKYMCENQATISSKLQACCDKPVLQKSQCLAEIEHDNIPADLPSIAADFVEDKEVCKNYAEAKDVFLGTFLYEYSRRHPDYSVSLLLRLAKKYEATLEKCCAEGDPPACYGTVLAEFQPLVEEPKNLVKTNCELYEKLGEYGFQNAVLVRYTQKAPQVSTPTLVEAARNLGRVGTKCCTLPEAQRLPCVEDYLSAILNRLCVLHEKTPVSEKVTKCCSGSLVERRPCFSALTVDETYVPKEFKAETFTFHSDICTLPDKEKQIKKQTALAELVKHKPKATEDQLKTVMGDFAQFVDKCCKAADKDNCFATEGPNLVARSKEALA

B1: SABA1-FGF21v1 (designed binder)
chain: MGVSDVPRDLEVVAATPTSLLISWHSYYEQNSYYRITYGETGGNSPVQEFTVPYSQTTATISGLKPGVDYTITVYAVYGSKYYYPISINYRTEIEKPSQGSGSGSGSGSGSGSPIPDSSPLLQFGGQVRQRYLYTDDAQQTEAHLEIREDGTVGGAADQSPESLLQLKALKPGVIQILGVKTSRFLCQRPDGALYGSLHFDPEACSFRELLLEDGYNVYQSEAHGLPLHLPGNKSPHRDPAPRGPARFLPLPGLPPALPEPPGILAPQPPDVGSSDPLSMVGPSQGRSPSYAS
notes: Fusion: SABA core 1 with AdNT1 leader and AdCT7 tail, (GS)7 linker, FGF21 core with FNT3 leader and C-terminal S; also called SABA-FGF21v1 fusion; SABA1-FGF21 variant 1
Kd [1]: 2800 nM
koff [1]: 0.0123 s⁻¹
kon [1]: 4440 M⁻¹ s⁻¹
EC50 (nM), pERK assay in 3T3-L1 adipocytes [2]: 11 nM
Fold Activation, pERK assay in 3T3-L1 adipocytes [2]: 1.8 fold
binding result (murine serum albumin [3]): no binding (tested: 1000 nM)
fold shift of potency (EC50) relative to His-tagged FGF21, pERK 1/2 assay (human β-klotho [4]): ~15 fold
Kd [5]: 1200 nM
koff [5]: 0.0047 s⁻¹
kon [5]: 3930 M⁻¹ s⁻¹
Kd (human serum albumin [6]): 190 nM
koff (human serum albumin [6]): 0.00111 s⁻¹
kon (human serum albumin [6]): 5960 M⁻¹ s⁻¹
Kd (human serum albumin [7]): 98 nM
koff (human serum albumin [7]): 0.000333 s⁻¹
kon (human serum albumin [7]): 3380 M⁻¹ s⁻¹
EC50 (nM), pERK 1/2 assay in HEK β-Klotho expressing stable cells (human β-klotho [8]): 102 nM
Kd (human serum albumin [9]): 3.8 nM
ΔH (human serum albumin [9]): -15.4 kcal/mol

B2: SABA1.2 (designed binder)
chain: MGVSDVPRDLEVVAATPTSLLISWHSYYEQNSYYRITYGETGGNSPVQEFTVPYSQTTATISGLKPGVDYTITVYAVYGSKYYYPISINYRTEIEDEDEDEDED
notes: also called core 1 10Fn3 comprising an (ED)5 extension
binding result (rat serum albumin): no binding (tested: 1000 nM)
binding result (murine serum albumin [10]): no binding (tested: 1000 nM)
EC50 (read off the curve) (human serum albumin [11]): ~7 nM
kon (human serum albumin [12]): 8210 M⁻¹ s⁻¹
ratio of affinity at 37 C against 25 C (rhesus serum albumin [13]): 0.5 fold
fold increase in affinity at 37 C against 25 C (human serum albumin [14]): ~2 fold
Kd (rhesus serum albumin [15]): 580 nM
koff (rhesus serum albumin [15]): 0.00378 s⁻¹
kon (rhesus serum albumin [15]): 6600 M⁻¹ s⁻¹
Kd (human serum albumin [16]): 55.3 nM
koff (human serum albumin [16]): 0.000443 s⁻¹
Kd (rhesus serum albumin [17]): 977 nM
koff (rhesus serum albumin [17]): 0.0185 s⁻¹
kon (rhesus serum albumin [17]): 18900 M⁻¹ s⁻¹
Kd (human serum albumin [18]): 24.1 nM
koff (human serum albumin [18]): 0.000815 s⁻¹
kon (human serum albumin [18]): 33800 M⁻¹ s⁻¹
Kd (rhesus serum albumin [19]): 359 nM
koff (rhesus serum albumin [19]): 0.00272 s⁻¹
kon (rhesus serum albumin [19]): 7570 M⁻¹ s⁻¹
Kd (human serum albumin [20]): 28.6 nM
koff (human serum albumin [20]): 0.00027 s⁻¹
kon (human serum albumin [20]): 9440 M⁻¹ s⁻¹
Kd (rhesus serum albumin [21]): 479 nM
koff (rhesus serum albumin [21]): 0.00295 s⁻¹
kon (rhesus serum albumin [21]): 6160 M⁻¹ s⁻¹
Kd (human serum albumin [22]): 41.9 nM
koff (human serum albumin [22]): 0.000388 s⁻¹
kon (human serum albumin [22]): 9260 M⁻¹ s⁻¹

B3: SABA5.1 (designed binder)
chain: MGVSDVPRDLEVVAATPTSLLISWEDDSYYSRYYRITYGETGGNSPVQEFTVPSDLYTATISGLKPGVDYTITVYAVTYDVTDLIMHEPISINYRTEIDKPSQHHHHHH
notes: His6-tagged Adnectin core 5; same BC, DE and FG loops as SABA4
binding result (murine serum albumin [23]): no binding
binding result (rhesus serum albumin [24]): binds
